{"source": "paper PMC5806882", "about": "“Structural and biochemical characterization of the biuret hydrolase (BiuH) from the cyanuric acid catabolism pathway of Rhizobium leguminasorum bv. viciae 3841” (PLoS ONE, 2018)", "proteins": {"B1": {"name": "BiuH Cys175Ser (enzyme)", "chain": "not shown", "notes": "Biuret hydrolase BiuH, Rhizobium leguminosarum bv. viciae 3841, UniProt Q1M7F4, with Cys175Ser; Crystallised without (6AZN) and with biuret (6AZQ); also called C175S; Cys175Ser BiuH variant; source: E. coli BL21 (λDE3), purified (Ni-NTA, SEC)"}, "B2": {"name": "SeMet BiuH wild-type (seleno-L-methionine biuret hydrolase from Rhizobium leguminosarum bv. viciae 3841) (enzyme)", "chain": "not shown", "modifications": "selenomethionine in place of methionine", "notes": "Biuret hydrolase BiuH, Rhizobium leguminosarum bv. viciae 3841; synthetic gene encoding a protein identical to UniProt Q1M7F4; His-tag removed in situ with chymotrypsin, without further purification; also called biuret amidohydrolase; source: E. coli BL21 (λDE3), minimal medium with SeMet, purified (Ni-NTA, SEC); in situ chymotrypsin treatment in the crystallisation drop"}, "B3": {"name": "BiuH Lys142Ala with N-carbamoyl-D,L-aspartic acid (enzyme)", "chain": "not shown", "modifications": "acyl (thiocarbamate) covalent complex between the deaminated inhibitor N-carbamoyl-D,L-aspartic acid and Cys175", "notes": "Biuret hydrolase BiuH, Rhizobium leguminosarum bv. viciae 3841, UniProt Q1M7F4, with Lys142Ala; also called K142A; Lys142Ala variant; source: E. coli BL21 (λDE3), purified (Ni-NTA, SEC)"}, "B4": {"name": "BiuH Lys142His (enzyme)", "chain": "not shown", "notes": "Biuret hydrolase BiuH, Rhizobium leguminosarum bv. viciae 3841, UniProt Q1M7F4, with Lys142His; also called K142H; source: E. coli BL21 (λDE3), purified (Ni-NTA, SEC)"}, "B5": {"name": "BiuH wild type (biuret hydrolase from Rhizobium leguminosarum bv. viciae 3841) (enzyme)", "chain": "not shown", "notes": "Biuret hydrolase BiuH, Rhizobium leguminosarum bv. viciae 3841; synthetic gene encoding a protein identical to UniProt Q1M7F4; Size exclusion followed Ni-NTA directly in the purification, so the tag was probably still on the protein; also called BiuH WT; biuret amidohydrolase; source: E. coli BL21 (λDE3), purified (Ni-NTA, SEC)"}}, "key": {"[1]": {"molecular_target": "the molecule itself", "experiment": "crystal structure; X-ray structures of BiuH and variants; sitting drops at 20 °C; SeMet SAD, variants by molecular replacement; homotetramer in the asymmetric unit"}, "[2]": {"molecular_target": "the molecule itself", "experiment": "SEC; Superdex 200 preparation grade, 130 mL column; 50 mM HEPES pH 7.5, 100 mM NaCl, later 50 mM Tris pH 7.5, 100 mM NaCl; elution compared with sizes expected for monomer, dimer, tetramer and octamer of BiuH"}}}
{"protein": "B1", "values": [{"measurement": "stoichiometry N", "setting": "[1]", "value": 4}]}
{"protein": "B2", "values": [{"measurement": "stoichiometry N", "setting": "[1]", "value": 4}]}
{"protein": "B3", "values": [{"measurement": "stoichiometry N", "setting": "[1]", "value": 4}]}
{"protein": "B4", "values": [{"measurement": "stoichiometry N", "setting": "[1]", "value": 4}]}
{"protein": "B5", "values": [{"measurement": "stoichiometry N", "setting": "[2]", "value": 4}]}
